Biological target: the molecule itself
Test: SEC; analytical size exclusion chromatography of recombinant CDH26A, 'in cell lysates'; details in the Supplementary Information

B1: full-length recombinant CDH26A (cadherin-26, transcript variant A) (natural protein, human, UniProt Q8IXH8-4 28-832, looked up)
chain: DSVQQETDDLTKQTKEKIYQPLRRSKRRWVITTLELEEEDPGPFPKLIGELFNNMSYNMSLMYLISGPGVDEYPEIGLFSLEDHENGRIYVHRPVDREMTPSFTVYFDVVERSTGKIVDTSLIFNIRISDVNDHAPQFPEKEFNITVQENQSAGQPIFQMLAVDLDEENTPNSQVLYFLISQTPLLKESGFRVDRLSGEIRLSGCLDYETAPQFTLLIRARDCGEPSLSSTTTVHVDVQEGNNHRPAFTQENYKVQIPEGRASQGVLRLLVQDRDSPFTSAWRAKFNILHGNEEGHFDISTDPETNEGILNVIKPLDYETRPAQSLIIVVENEERLVFCERGKLQPPRKAAASATVSVQVTDANDPPAFHPQSFIVNKEEGARPGTLLGTFNAMDPDSQIRYELVHDPANWVSVDKNSGVVITVEPIDRESPHVNNSFYVIIIHAVDDGFPPQTATGTLMLFLSDINDNVPTLRPRSRYMEVCESAVHEPLHIEAEDPDLEPFSDPFTFELDNTWGNAEDTWKLGRNWGQSVELLTLRSLPRGNYLVPLFIGDKQGLSQKQTVHVRICPCASGLTCVELADAEVGLHVGALFPVCAAFVALAVALLFLLRCYFVLEPKRHGCSVSNDEGHQTLVMYNAESKGTSAQTWSDVEGQRPALLICTAAAGPTQGVKDLEEVPPSAASQSAQARCALGSWGYGKPFEPRSVKNIHSTPAYPDATMHRQLLAPVEGRMAETLNQKLHVANVLEDDPGYLPHVYSEEGECGGAPSLSSLASLEQELQPDLLDSLGSKATPFEEIYSESGVPS
notes: cadherin-26 (CDH26), human, product of transcript variant A (NM_177980; 18 exons; predicted protein molecular weight 92.4 kDa); full-length recombinant protein; also called rCDH26A; source: purified by the University of North Carolina Protein Expression and Purification Core Facility; for the analytical SEC 'in cell lysates'
binding result: binds
